Measured values from publication PMC10397247.
Like-named read-outs stand apart in the source and are kept apart here. One block for each binder: values may come before it.

Legend:
Assay in all cases: two-hybrid library CCmax;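 note: natural log of median RNA to DNA barcode read ratio; higher means stronger binding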
[1] = biological target: T1, 4H906-AA; conditions: mean of both orientations
T1 chain: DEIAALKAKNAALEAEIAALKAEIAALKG

[2] = biological target: T2, 4H342-AA; conditions: mean of both orientations
T2 chain: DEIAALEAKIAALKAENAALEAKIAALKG

[3] = biological target: T3, 4H454-AA; conditions: mean of both orientations
T3 chain: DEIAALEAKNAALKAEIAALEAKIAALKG

[4] = biological target: T4, N6-AA; conditions: mean of both orientations
T4 chain: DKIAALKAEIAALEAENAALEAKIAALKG

[5] = biological target: T5, 4H2944-AA; conditions: mean of both orientations
T5 chain: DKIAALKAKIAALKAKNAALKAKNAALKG

[6] = biological target: T6, 4H3627-AA; conditions: mean of both orientations
T6 chain: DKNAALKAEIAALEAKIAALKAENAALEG

[7] = biological target: T7, 4H717-AA; conditions: mean of both orientations
T7 chain: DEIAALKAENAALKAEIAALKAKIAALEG

[8] = biological target: T8, 4H2949-AA; conditions: mean of both orientations
T8 chain: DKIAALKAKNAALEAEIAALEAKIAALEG

[9] = biological target: T9, N5-AA
T9 chain: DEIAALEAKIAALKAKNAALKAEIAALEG

[10] = biological target: T10, 4H3844-AA; conditions: mean of both orientations
T10 chain: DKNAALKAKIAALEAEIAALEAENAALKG

[11] = biological target: T11, 4H3343-AA; conditions: mean of both orientations
T11 chain: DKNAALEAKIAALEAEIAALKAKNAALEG

[12] = biological target: T12, 4H3655-AA; conditions: mean of both orientations
T12 chain: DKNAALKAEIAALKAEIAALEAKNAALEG

[13] = biological target: T13, 4H2883-AA
T13 chain: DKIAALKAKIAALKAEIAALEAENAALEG

[14] = biological target: T14, 4H605-AA; conditions: mean of both orientations
T14 chain: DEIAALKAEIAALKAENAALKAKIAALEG

[15] = biological target: T15, 4H678-AA; conditions: mean of both orientations
T15 chain: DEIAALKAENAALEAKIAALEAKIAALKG

[16] = biological target: T16, 4H881-AA; conditions: mean of both orientations
T16 chain: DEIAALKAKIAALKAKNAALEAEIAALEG

[17] = biological target: T17, 4H429-AA; conditions: mean of both orientations
T17 chain: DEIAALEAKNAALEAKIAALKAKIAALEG

[18] = biological target: T18, 4H3112-AA; conditions: mean of both orientations
T18 chain: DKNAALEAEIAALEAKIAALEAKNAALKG

[19] = biological target: T19, 4H3606-AA; conditions: mean of both orientations
T19 chain: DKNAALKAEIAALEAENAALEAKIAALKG

[20] = biological target: T20, 4H317-AA; conditions: mean of both orientations
T20 chain: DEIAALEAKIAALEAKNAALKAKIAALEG

[21] = biological target: T21, 4H993-AA; conditions: mean of both orientations
T21 chain: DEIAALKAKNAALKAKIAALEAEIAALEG

[22] = biological target: T22, 4H794-AA; conditions: mean of both orientations
T22 chain: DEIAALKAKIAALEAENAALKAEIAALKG

[23] = biological target: T23, 4H3427-AA; conditions: mean of both orientations
T23 chain: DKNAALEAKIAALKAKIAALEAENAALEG

[24] = biological target: T24, 4H48-AA; conditions: mean of both orientations
T24 chain: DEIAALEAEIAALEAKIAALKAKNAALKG

[25] = biological target: T25, 4H566-AA; conditions: mean of both orientations
T25 chain: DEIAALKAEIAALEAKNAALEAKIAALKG

[26] = biological target: T26, 4H335-AA; conditions: mean of both orientations
T26 chain: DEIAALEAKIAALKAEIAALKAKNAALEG

[27] = biological target: T27, 4H1867-AA; conditions: mean of both orientations
T27 chain: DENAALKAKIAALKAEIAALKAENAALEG

[28] = biological target: T28, 4H2575-AA; conditions: mean of both orientations
T28 chain: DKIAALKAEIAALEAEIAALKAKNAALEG

[29] = biological target: T29, 4H2837-AA; conditions: mean of both orientations
T29 chain: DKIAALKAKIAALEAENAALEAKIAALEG

[30] = biological target: T30, 4H780-AA; conditions: mean of both orientations
T30 chain: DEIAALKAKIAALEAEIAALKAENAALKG

[31] = biological target: T31, 4H2617-AA; conditions: mean of both orientations
T31 chain: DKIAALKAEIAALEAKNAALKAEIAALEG

[32] = biological target: T32, 4H2165-AA; conditions: mean of both orientations
T32 chain: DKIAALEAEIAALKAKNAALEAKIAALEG

[33] = biological target: T33, 4H2754-AA; conditions: mean of both orientations
T33 chain: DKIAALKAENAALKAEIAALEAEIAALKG

[34] = biological target: T34, 4H2393-AA; conditions: mean of both orientations
T34 chain: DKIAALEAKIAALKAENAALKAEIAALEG

[35] = biological target: T35, 4H2078-AA; conditions: mean of both orientations
T35 chain: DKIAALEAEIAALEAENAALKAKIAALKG

[36] = biological target: T36, 4H3921-AA; conditions: mean of both orientations
T36 chain: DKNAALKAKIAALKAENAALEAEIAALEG

[37] = biological target: T37, 4H2642-AA; conditions: mean of both orientations
T37 chain: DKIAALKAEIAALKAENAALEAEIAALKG

[38] = biological target: T38, 4H2277-AA; conditions: mean of both orientations
T38 chain: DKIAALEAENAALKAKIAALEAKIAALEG

[39] = biological target: T39, 4H2466-AA
T39 chain: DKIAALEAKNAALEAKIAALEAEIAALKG

[40] = biological target: T40, 4H2151-AA; conditions: mean of both orientations
T40 chain: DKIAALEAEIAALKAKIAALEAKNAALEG

[41] = biological target: T41, 4H1352-AA; conditions: mean of both orientations
T41 chain: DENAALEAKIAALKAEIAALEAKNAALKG

[42] = biological target: T42, 4H1552-AA; conditions: mean of both orientations
T42 chain: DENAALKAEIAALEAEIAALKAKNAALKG

[43] = biological target: T43, 4H1842-AA
T43 chain: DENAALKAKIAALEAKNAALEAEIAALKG

[44] = biological target: T44, 4H1324-AA
T44 chain: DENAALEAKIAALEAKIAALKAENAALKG

[45] = biological target: T45, 4H1636-AA; conditions: mean of both orientations
T45 chain: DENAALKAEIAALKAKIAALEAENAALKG

[46] = biological target: T46, 4H2505-AA; conditions: mean of both orientations
T46 chain: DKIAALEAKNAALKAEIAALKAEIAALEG

[47] = biological target: T47, 4H2354-AA; conditions: mean of both orientations
T47 chain: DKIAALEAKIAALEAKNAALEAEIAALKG

[48] = biological target: T48, 4H2190-AA; conditions: mean of both orientations
T48 chain: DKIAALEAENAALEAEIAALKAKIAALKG

[49] = biological target: T49, 4H1401-AA; conditions: mean of both orientations
T49 chain: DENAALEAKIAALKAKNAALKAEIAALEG

[50] = biological target: T50, 4H234-AA; conditions: mean of both orientations
T50 chain: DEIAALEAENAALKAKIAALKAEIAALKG

[51] = biological target: T51, 4H2729-AA; conditions: mean of both orientations
T51 chain: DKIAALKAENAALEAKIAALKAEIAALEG

interaction score [1]: -1.52
interaction score [2]: -0.29
interaction score [3]: -0.344
interaction score [4]: 1.03
interaction score [5]: 0.034
interaction score [6]: -0.102
interaction score [7]: -1.74
interaction score [8]: 0.237
interaction score ([9]; mean of both orientations): 0.696
interaction score [10]: 0.741
interaction score [11]: -0.771
interaction score [12]: 0.159
interaction score [13]: 1.92
interaction score [14]: -1.31
interaction score [15]: 0.155
interaction score [16]: -0.297
interaction score [17]: -0.571
interaction score [18]: 1.39
interaction score [19]: 0.716
interaction score [20]: -0.269
interaction score [21]: -0.35
interaction score [22]: -1.54
interaction score [23]: -0.335
interaction score [24]: 2.1
interaction score [25]: 0.102
B1: 4H2883-AA (peptide)
chain: DKIAALKAKIAALKAEIAALEAENAALEG

interaction score [4]: 2.28
interaction score [9]: -0.624
B2: N5-AA (peptide)
chain: DEIAALEAKIAALKAKNAALKAEIAALEG

interaction score [26]: -0.376
interaction score [1]: -1.42
interaction score [2]: -1.05
interaction score [27]: 0.462
interaction score [28]: 0.676
interaction score [3]: -0.814
interaction score [29]: -1.14
interaction score [30]: 0.567
interaction score [5]: -1.01
interaction score [31]: -0.287
interaction score [32]: -1.47
interaction score [6]: 0.372
interaction score [33]: -1.3
interaction score [7]: -1.26
interaction score [34]: -0.744
interaction score [8]: -1.16
interaction score [35]: 1.78
interaction score [36]: -1.15
interaction score [37]: -0.934
interaction score [38]: -1.35
interaction score [10]: 2.11
interaction score [39]: -1.2
interaction score [11]: 0.278
interaction score [12]: -0.51
interaction score [40]: -0.928
interaction score ([13]; mean of both orientations): 1.32
interaction score [14]: -1.44
interaction score [15]: -1.52
interaction score [41]: 0.674
interaction score [16]: -1.69
interaction score [42]: 1.17
interaction score [17]: -1.18
interaction score [43]: -1.92
interaction score [44]: 1.4
interaction score [45]: -0.551
interaction score [46]: -1.2
interaction score [47]: -1.59
interaction score [18]: 0.0224
interaction score [19]: -1.02
interaction score [20]: -1.41
interaction score [21]: 1.28
interaction score [48]: -1.14
interaction score [22]: -1.34
interaction score [49]: -1.6
interaction score [50]: -2.21
interaction score [23]: 0.0395
interaction score [51]: -1.35
interaction score [24]: 1.07
interaction score [25]: -1.31
B3: 4H1324-AA (peptide)
chain: DENAALEAKIAALEAKIAALKAENAALKG
